Source: patent publication US20070293656A1, “COLLAGEN BINDING PEPTIDES” (Epix Pharmaceuticals, Inc., priority 2005, published 2007)
Read-outs that look alike come from different tables or passages of the source. Bridge positions count the residues as written; N and C are the ends. Square brackets hold non-standard residues; d marks the D form. Primed or numbered codes have the meaning given here. Side chains are listed from the residue outwards. Ends that are not written are not given here. * marks the point of attachment. GdT″ = Gd-DTPA chelate conjugated through a thiourea; Dip = N[C@H](C(=O)O)C(c1ccccc1)c1ccccc1; Orn = NCCC[C@H](N)C(=O)O; Gd^T″ = GdDTPA-thiourea; Cbz = O=C(OCc1ccccc1)*

Tests used:
[1] = target: T1, human collagen type I (Homo sapiens, UniProt P02452+P08123); experiment: Dried collagen assay (DCA): percent binding to dried human collagen; settings: 5 μM peptide in PBS, pH 7.4, 2 hours at room temperature
T1 construct: Acid soluble human collagen extracted from placenta; purchased Sigma C7774 (lot #083K375); host or cells: human placenta
Procedure: Acid soluble human collagen extracted from placenta (Sigma, cat #C7774, lot #083K375) is dissolved in 15 mM HCl (3.5 mg/ml) by vortexing and gently shaking for 3-4 hours at 4° C. The acid soluble collagen is […] against PBS, pH 7.4 (three buffer exchanges are used). The […] protein concentration is determined by the BCA method (Pierce, Cat #23225) using bovine collagen (Vitrogen, cat #FXP-019) as a reference standard. Percent gelation (fibril formation) of the collagen is determined by incubating 10 μM collagen (3.3 mg/ml) at 37° C. for 6 hours. A typical percent gelation is 60%.
(§1) An additional 90 μL is reserved in a HPLC glass vial as a measure of the total concentration.

[2] = target: T2, rat collagen type I (Rattus norvegicus, UniProt P02454+P02466); experiment: Dried collagen assay (DCA): percent binding to dried rat collagen; settings: 5 μM peptide in PBS, pH 7.4, 2 hours at room temperature
T2 construct: Rat collagen (acid soluble, type I, rat tail); purchased Upstate USA, Inc 08-115; host or cells: rat tail
Procedure: Rat collagen (acid soluble, type I, rat tail, Upstate USA, Inc, cat #08-115) is dialyzed against 10 mM Phosphate (NaH2PO4), pH 4.2 with three changes of the dialysis buffer. For the final assay, a 1:10 volume of 10×PBS (100 mM NaH2PO4, 1.5 M NaCl pH 7.4) is added to the collagen solution (final 1×PBS) and incubated at 37° C. for 2 hours. The gelation is typically 90%.
as §1

[3] = target: T3, rat collagen (acid soluble, type I, rat tail, Upstate 08-115) (rat, UniProt P02454 152-1207; P02466 86-1125); experiment: dried collagen assay
T3 construct: also called dried rat collagen; insoluble rat collagen

[4] = target: T4, human collagen type I (acid soluble, extracted from placenta, Sigma C7774) (human, UniProt P02452 162-1218; P08123 80-1119); experiment: dried collagen assay
T4 construct: gelled and dried as a fibril film in the assay; also called dried human collagen; h-Collagen

[5] = target: rat collagen (acid soluble, type I, rat tail, Upstate 08-115) (rat) (UniProt P02454); experiment: dried collagen assay
[6] = target: human collagen type I (acid soluble, extracted from placenta, Sigma C7774) (human) (UniProt P02452); experiment: dried collagen assay
[7] = target: T3, rat collagen (acid soluble, type I, rat …); experiment: dried collagen assay; remark: listed apart in the source
[8] = target: T3, rat collagen (acid soluble, type I, rat …); experiment: dried collagen assay; remark: listed apart in the source
[9] = target: T4, human collagen type I (acid soluble, …); experiment: dried collagen assay; remark: listed apart in the source

T2 sequence (P02454 152-1207 limits assumed): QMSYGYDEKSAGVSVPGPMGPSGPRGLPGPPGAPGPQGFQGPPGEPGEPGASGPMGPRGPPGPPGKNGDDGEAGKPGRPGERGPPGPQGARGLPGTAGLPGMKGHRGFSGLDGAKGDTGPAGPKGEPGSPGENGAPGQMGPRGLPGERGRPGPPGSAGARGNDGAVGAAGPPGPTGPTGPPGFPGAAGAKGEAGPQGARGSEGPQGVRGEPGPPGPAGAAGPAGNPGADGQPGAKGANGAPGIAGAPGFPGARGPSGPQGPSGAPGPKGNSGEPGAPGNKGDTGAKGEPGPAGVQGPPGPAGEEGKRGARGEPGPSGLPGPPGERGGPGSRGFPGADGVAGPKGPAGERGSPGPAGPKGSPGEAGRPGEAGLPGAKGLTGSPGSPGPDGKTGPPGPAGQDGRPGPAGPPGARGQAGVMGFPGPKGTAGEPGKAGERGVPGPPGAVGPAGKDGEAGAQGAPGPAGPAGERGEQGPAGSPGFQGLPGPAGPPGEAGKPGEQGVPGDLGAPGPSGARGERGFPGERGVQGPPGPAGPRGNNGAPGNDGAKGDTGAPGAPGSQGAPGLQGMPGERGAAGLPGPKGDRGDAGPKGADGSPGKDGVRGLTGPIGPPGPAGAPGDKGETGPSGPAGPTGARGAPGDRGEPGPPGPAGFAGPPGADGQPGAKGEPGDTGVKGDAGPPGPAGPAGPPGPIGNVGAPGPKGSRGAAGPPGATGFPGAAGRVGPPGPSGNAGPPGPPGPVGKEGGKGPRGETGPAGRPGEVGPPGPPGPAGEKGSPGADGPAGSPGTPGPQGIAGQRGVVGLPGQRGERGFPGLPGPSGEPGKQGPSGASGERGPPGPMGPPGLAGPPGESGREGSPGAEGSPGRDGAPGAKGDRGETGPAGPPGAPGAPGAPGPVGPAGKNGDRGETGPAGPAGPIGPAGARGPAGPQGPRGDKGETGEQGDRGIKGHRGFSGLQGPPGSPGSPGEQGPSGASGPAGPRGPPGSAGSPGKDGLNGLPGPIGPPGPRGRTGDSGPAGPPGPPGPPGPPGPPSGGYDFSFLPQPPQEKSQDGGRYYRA
T2 sequence (P02466 86-1125 limits assumed): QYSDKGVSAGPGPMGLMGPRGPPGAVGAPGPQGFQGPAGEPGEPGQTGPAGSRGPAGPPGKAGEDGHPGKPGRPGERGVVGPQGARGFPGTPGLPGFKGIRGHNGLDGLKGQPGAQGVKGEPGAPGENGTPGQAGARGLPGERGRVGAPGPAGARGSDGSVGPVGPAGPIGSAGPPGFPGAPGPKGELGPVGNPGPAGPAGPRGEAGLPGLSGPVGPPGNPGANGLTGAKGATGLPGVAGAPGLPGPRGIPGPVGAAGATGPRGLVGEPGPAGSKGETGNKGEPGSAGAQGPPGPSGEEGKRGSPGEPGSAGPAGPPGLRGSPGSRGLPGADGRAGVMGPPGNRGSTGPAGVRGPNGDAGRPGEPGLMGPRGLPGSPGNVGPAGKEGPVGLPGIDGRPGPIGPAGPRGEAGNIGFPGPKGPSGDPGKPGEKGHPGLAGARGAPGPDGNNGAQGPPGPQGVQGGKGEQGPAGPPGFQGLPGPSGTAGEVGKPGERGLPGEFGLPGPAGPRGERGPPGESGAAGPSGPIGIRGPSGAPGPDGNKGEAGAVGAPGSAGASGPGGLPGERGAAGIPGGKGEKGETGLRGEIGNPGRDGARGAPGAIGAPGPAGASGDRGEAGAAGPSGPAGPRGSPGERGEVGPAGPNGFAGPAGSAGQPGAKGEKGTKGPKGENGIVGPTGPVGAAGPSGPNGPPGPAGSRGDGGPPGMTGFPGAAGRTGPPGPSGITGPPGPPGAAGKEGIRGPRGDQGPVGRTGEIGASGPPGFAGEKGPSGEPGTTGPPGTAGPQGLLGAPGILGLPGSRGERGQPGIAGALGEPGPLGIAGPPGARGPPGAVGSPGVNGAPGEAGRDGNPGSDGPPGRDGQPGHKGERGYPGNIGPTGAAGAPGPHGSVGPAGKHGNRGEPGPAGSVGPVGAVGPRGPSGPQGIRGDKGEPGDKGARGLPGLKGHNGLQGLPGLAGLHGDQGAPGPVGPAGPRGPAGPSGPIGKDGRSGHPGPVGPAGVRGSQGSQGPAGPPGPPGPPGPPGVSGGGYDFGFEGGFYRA
rat collagen (acid soluble, type I, rat tail, Upstate 08-115) (rat), sequence (P02454 152-1207 limits assumed, chain 1 of 2): as the sequence (P02454 152-1207 limits assumed) above
rat collagen (acid soluble, type I, rat tail, Upstate 08-115) (rat), sequence (P02466 86-1125 limits assumed, chain 2 of 2, further chain): as the sequence (P02466 86-1125 limits assumed) above
T3 sequence (P02454 152-1207 limits assumed, chain 1 of 2): as the sequence (P02454 152-1207 limits assumed) above
T3 sequence (P02466 86-1125 limits assumed, chain 2 of 2): as the sequence (P02466 86-1125 limits assumed) above
T1 sequence (P02452 162-1218 limits assumed): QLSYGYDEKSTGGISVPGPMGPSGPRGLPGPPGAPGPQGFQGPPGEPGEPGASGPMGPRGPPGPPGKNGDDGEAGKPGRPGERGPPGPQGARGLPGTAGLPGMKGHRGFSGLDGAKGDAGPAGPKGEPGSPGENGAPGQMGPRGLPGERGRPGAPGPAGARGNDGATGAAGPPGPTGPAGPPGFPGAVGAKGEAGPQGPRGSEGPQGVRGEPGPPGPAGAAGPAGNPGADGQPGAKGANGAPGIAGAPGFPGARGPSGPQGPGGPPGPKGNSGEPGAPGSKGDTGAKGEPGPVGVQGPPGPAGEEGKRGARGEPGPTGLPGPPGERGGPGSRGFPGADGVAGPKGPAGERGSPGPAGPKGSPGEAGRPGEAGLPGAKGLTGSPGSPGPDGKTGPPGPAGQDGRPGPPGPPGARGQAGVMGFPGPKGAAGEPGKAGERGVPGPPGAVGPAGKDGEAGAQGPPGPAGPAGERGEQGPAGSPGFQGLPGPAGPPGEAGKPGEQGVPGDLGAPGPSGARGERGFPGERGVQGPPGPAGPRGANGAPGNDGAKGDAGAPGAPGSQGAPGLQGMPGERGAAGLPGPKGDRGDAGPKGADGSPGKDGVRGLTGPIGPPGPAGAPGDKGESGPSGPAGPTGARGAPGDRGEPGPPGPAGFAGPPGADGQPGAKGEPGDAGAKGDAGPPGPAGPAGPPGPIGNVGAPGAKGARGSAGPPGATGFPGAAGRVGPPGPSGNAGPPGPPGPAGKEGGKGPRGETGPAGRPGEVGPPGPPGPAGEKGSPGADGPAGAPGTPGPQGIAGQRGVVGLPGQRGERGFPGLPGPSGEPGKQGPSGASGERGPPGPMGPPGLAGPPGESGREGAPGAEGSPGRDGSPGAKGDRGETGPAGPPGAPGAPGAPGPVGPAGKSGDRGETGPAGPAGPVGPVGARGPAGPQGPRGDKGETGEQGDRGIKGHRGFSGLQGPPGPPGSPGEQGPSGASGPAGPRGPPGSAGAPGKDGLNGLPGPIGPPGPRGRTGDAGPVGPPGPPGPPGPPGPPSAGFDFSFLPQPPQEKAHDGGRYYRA
T1 sequence (P08123 80-1119 limits assumed): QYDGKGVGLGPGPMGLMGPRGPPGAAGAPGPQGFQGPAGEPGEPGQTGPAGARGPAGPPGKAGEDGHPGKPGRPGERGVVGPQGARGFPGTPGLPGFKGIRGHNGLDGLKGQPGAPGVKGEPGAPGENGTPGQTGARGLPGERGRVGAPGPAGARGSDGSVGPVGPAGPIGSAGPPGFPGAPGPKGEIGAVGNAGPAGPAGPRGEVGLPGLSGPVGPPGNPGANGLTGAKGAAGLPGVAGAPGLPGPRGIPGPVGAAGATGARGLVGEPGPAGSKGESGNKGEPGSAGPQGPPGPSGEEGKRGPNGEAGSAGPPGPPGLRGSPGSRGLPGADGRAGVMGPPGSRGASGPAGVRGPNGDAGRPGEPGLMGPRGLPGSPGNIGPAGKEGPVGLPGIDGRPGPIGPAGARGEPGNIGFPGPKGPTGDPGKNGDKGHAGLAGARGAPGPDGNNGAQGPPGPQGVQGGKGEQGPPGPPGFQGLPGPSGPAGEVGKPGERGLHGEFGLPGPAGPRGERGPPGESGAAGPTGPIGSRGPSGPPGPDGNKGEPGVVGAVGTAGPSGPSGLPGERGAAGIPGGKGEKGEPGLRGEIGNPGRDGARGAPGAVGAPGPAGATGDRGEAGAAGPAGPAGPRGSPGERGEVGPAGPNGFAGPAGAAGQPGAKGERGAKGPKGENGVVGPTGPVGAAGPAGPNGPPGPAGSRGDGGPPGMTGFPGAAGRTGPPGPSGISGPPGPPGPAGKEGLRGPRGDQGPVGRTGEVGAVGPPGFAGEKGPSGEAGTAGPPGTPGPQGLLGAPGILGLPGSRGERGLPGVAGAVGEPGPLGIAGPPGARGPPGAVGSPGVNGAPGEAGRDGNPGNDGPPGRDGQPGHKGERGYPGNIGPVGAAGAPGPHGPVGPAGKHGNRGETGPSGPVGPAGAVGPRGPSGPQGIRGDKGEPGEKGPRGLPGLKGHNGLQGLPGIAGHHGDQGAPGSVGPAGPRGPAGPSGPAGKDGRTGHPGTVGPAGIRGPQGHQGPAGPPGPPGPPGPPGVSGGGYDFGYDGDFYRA
human collagen type I (acid soluble, extracted from placenta, Sigma C7774) (human), sequence (P02452 162-1218 limits assumed, chain 1 of 2): as the sequence (P02452 162-1218 limits assumed) above
human collagen type I (acid soluble, extracted from placenta, Sigma C7774) (human), sequence (P08123 80-1119 limits assumed, chain 2 of 2, further chain): as the sequence (P08123 80-1119 limits assumed) above
T4 sequence (P02452 162-1218 limits assumed, chain 1 of 2): as the sequence (P02452 162-1218 limits assumed) above
T4 sequence (P08123 80-1119 limits assumed, chain 2 of 2): as the sequence (P08123 80-1119 limits assumed) above

For 39 (GWQCSGDASVWNCDWI) [compound 39], the “Dried Human Collagen Binding” value [1] was 6%.

37 (LWNCHGTDANWKCVLN) [compound 37] was tested, and the “Dried Human Collagen Binding” value [1] was 7%.

3 (PWWCHEMPSMCFGF) [compound 3] was tested, and the “Dried Human Collagen Binding” value [1] was 2%.

“174 (QWTCSGDEYTW[dH]CNYE; disulfide 4-13 (inferred)) [compound 174]” was tested, and the “% Collagen Binding Dried Human” value [1] was 5%.

For “168 (QWTC[dS]GDEYTWHCNYE; disulfide 4-13 (inferred)) [compound 168]”, the “% Collagen Binding Dried Human” value [1] was 3% and the “% Collagen Binding Dried Rat” value [2] was 2%.

For “173 (QWTCSGDEYT[dW]HCNYE; disulfide 4-13 (inferred)) [compound 173]”, the “% Collagen Binding Dried Human” value [1] was 5% and the “% Collagen Binding Dried Rat” value [2] was 4%.

“169 (QWTCSG[dD]EYTWHCNYE; disulfide 4-13 (inferred)) [compound 169]” was tested, and the “% Collagen Binding Dried Rat” value [2] was 4%.

In the case of 38 (GWSCHGDAADWPCQWS) [compound 38], the “Dried Human Collagen Binding” value [1] is reported as 6%.

In the case of “112 (AKACSVHDEFGCLIS; disulfide 4-12 (inferred)) [compound 112]”, the “Dried Human Collagen Binding” value [1] is reported as 9%.

36 (SWSCGGDHNAWKCQYS) [compound 36] was tested, and the “Dried Human Collagen Binding” value [1] was 7%.

For 65 (KWECVHTKGEWYCETK) [compound 65], the “Dried Human Collagen Binding” value [1] was 7%.

In the case of “159 (YHACYQAG[dC]WIW; disulfide 4-9 (inferred)) [compound 159]”, the “% Collagen Binding Dried Human” value [1] is reported as 7%.

With “147 (QWTCSGDEYTAHCNYE; disulfide 4-13 (inferred)) [compound 147]” the “% Collagen Binding Dried Human” value [1] was 5%.

“167 (QWT[dC]SGDEYTWHCNYE; disulfide 4-13 (inferred)) [compound 167]” was tested, and the “% Collagen Binding Dried Human” value [1] was 4%.

In the case of “175 (QWTCSGDEYTWH[dC]NYE; disulfide 4-13 (inferred)) [compound 175]”, the “% Collagen Binding Dried Human” value [1] is reported as 2% and the “% Collagen Binding Dried Rat” value [2] is reported as 2%.

“176 (QWTCSGDEYTWHC[dN]YE; disulfide 4-13 (inferred)) [compound 176]” was tested, and the “% Collagen Binding Dried Human” value [1] was 2% and the “% Collagen Binding Dried Rat” value [2] was 2%.

For “165 (Q[dW]TCSGDEYTWHCNYE; disulfide 4-13 (inferred)) [compound 165]”, the “% Collagen Binding Dried Human” value [1] was 2% and the “% Collagen Binding Dried Rat” value [2] was 4%.

“137 (YHACYQAGCWAW; disulfide 4-9 (inferred)) [compound 137]” was tested, and the “% Collagen Binding Dried Rat” value [2] was 7%.

In the case of “113 (FSECVWVNAYQCEYF; disulfide 4-12 (inferred)) [compound 113]”, the “Dried Human Collagen Binding” value [1] is reported as 3%.

2 (WGWCEWAQNNCWNY) [compound 2] was tested, and the “Dried Human Collagen Binding” value [1] was 14%.

For “130 (WWACQKGRHDWEKCRWL; disulfide 4-14 (inferred)) [compound 130]”, the “Dried Human Collagen Binding” value [1] was 32%.

“163 ([dY][dH][dA][dC][dY][dQ][dA]G[dC][dW][dI][dW]; disulfide 4-9 (inferred)) [compound 163]” was tested, and the “% Collagen Binding Dried Rat” value [2] was 53%.

With “142 (QWTCSADEYTWHCNYE; disulfide 4-13 (inferred)) [compound 142]” the “% Collagen Binding Dried Rat” value [2] was 6%.

In the case of “171 (QWTCSGDE[dY]TWHCNYE; disulfide 4-13 (inferred)) [compound 171]”, the “% Collagen Binding Dried Rat” value [2] is reported as 6%.

With “166 (QW[dT]CSGDEYTWHCNYE; disulfide 4-13 (inferred)) [compound 166]” the “% Collagen Binding Dried Human” value [1] was 2% and the “% Collagen Binding Dried Rat” value [2] was 3%.

With YHACYQAGC[dW]IW (disulfide 4-9 (inferred)) [SEQ ID NO: 160] the “% bound” value [3] was 12% and the “% bound” value [4] was 20%.

With YH[dA]CYQAGCWIW (disulfide 4-9 (inferred)) [SEQ ID NO: 154] the “% bound” value [3] was 21% and the “% bound” value [4] was 24%.

In the case of Y[dH]ACYQAGCWIW (disulfide 4-9 (inferred)) [SEQ ID NO: 153], the “% bound” value [3] is reported as 0% and the “% bound” value [4] is reported as 0%.

Molecule GQWHCTTRFPHHFCLYG (not fully specified; Gd^T-GQWHCTTRFPHHfCLYG) [Comp ID 901] has a % bound [5] of 2% and a % bound [6] of 2%.

Work on GQWHCTTRFPHHXCLYG (not fully specified; Gd^T-GQWHCTTRFPHH-bip-CLYG) [Comp ID 903] yielded a % bound [5] of 5% and a % bound [6] of 3%.

GQWHCTTLFPHHYCLYG (not fully specified; Gd^T-GQWHCTTLFPHHyCLYG) [Comp ID 907] gave a % bound [5] of 1% and a % bound [6] of 6%.

For {GdT″}-GK([Gly-GdT″])WHCTTYFPHH[Dip]CLYG (disulfide 5-14; not fully specified (C-terminus)) [Comp ID 968], the “% bound” value [7] was 64%.

GQWHCTTRFPHHYXLYG (not fully specified; Gd^T-GQWHCTTRFPHHY-Pen-LYG) [Comp ID 906] was tested, and the “% bound” value [7] was 5%.

B1: Comp ID 967 (peptide)
peptide: {Gd^T″}-GK([Gly-Gd^T″])WHCTTYFPHHYCL[Dip]G
modifications: disulfide 5-14 (inferred); not fully specified (C-terminus); printed as Gd^T-G-K(G.Gd^T)-WHCTTYFPHHYCL-Dip-G
In the case of B1, the “% bound” value [7] is reported as 4%.

YHACYQ[dA]GCWIW (disulfide 4-9 (inferred)) [SEQ ID NO: 158] was tested, and the “% bound” value [3] was 66% and the “% bound” value [4] was 56%.

In the case of YHACY[dQ]AGCWIW (disulfide 4-9 (inferred)) [SEQ ID NO: 157], the “% bound” value [3] is reported as 35% and the “% bound” value [4] is reported as 37%.

With YAACYQAGCWIW (disulfide 4-9 (inferred)) [SEQ ID NO: 132] the “% bound” value [8] was 37% and the “% bound” value [9] was 53%.

In the case of YHACYQAGCWIA (disulfide 4-9 (inferred)) [SEQ ID NO: 138], the “% bound” value [8] is reported as 1% and the “% bound” value [9] is reported as 2%.

For YHAC[dY]QAGCWIW (disulfide 4-9 (inferred)) [SEQ ID NO: 156], the “% bound” value [3] was 48% and the “% bound” value [4] was 38%.

B2: Comp ID 941 (peptide)
peptide: Cbz-GQWHCT[Orn](Gd^T″)RFPHHYCLYG
modifications: disulfide 5-14; not fully specified (C-terminus); printed as cbz-GQWHCT-Orn(Gd^T)-RFPHHYCLYG
With B2 the % bound [6] was 8% and the “% bound” value [7] was 5%.

AHACYQAGCWIW (disulfide 4-9 (inferred)) [SEQ ID NO: 131] was tested, and the “% bound” value [8] was 12% and the “% bound” value [9] was 7%.

YHACAQAGCWIW (disulfide 4-9 (inferred)) [SEQ ID NO: 133] was tested, and the “% bound” value [8] was 5% and the “% bound” value [9] was 4%.

In the case of YHACYAAGCWIW (disulfide 4-9 (inferred)) [SEQ ID NO: 134], the “% bound” value [8] is reported as 1% and the “% bound” value [9] is reported as 14%.

With YHACYQAGCWAW (disulfide 4-9 (inferred)) [SEQ ID NO: 137] the % bound [5] was 7% and the “% bound” value [9] was 4%.

For YHACYQAACWIW (disulfide 4-9 (inferred)) [SEQ ID NO: 135], the “% bound” value [8] was 88% and the “% bound” value [9] was 72%.

In the case of YHACYQAGCAIW (disulfide 4-9 (inferred)) [SEQ ID NO: 136], the “% bound” value [8] is reported as 2% and the “% bound” value [9] is reported as 2%.

GQWHCTTRFPHAYCLYG (not fully specified; Gd^T-GQWHCTTRFPHAYCLYG) [Comp ID 878] was tested, and the % bound [6] was 8% and the “% bound” value [7] was 9%.

GQWHCTDRFPHHYCLYG (not fully specified; Gd^T-GQWHCTDRFPHHYCLYG) [Comp ID 936] was tested, and the “% bound” value [7] was 5%.

In the case of GQWHCTTDFPHHYCLYG (not fully specified; Gd^T-GQWHCTTD-F(4-NH2)(Gd^T)-PHHYCLYG) [Comp ID 885], the “% bound” value [7] is reported as 9%.
